Results: patent publication US20260008847A1 (ELPISCIENCE SUZHOU BIOPHARMA, published 2026)
Each block holds one binder with its values, some of them ahead of it.

Key:
[1] = target: T1, Human LILRB2 stably expressed on EL4 cells (EL4/LILRB2) (human, UniProt Q8N423 22-597); assay: competitive FACS, blockade of HLA-G binding to LILRB2 on cells
T1 construct: also called EL4-LILRB2 cells; cell membrane human LILRB2
Description: (§1) The blocking activities were determined by quantitating the blockade of the ligands binding to EL4/LILRB2 cells.

[2] = target: T2, Human LILRA1 ECD recombinant protein with 6×His-tag (human, UniProt O75019 17-461); assay: ELISA: plate coated with LILRA1 ECD recombinant protein
T2 construct: range 1-461; Bought protein; not shown: 6×His-tag

[3] = target: T3, 6×His-tagged human LILRB2 ECD recombinant protein (human, UniProt Q8N423 22-458, limits assumed); assay: Octet tandem binning on captured 6×His LILRB2 ECD; competitor (Ab1) 1E1
T3 construct: Bought protein; not shown: 6×His-tag

[4] = target: Human LILRB4 ECD recombinant protein with 6×His-tag (human) (UniProt Q8NHJ6); assay: ELISA: plate coated with LILRB4 ECD recombinant protein, antibody at 0.5 ug/mL (method of example 3.2.1); mean OD450 printed over the bar [continued) H]
[5] = target: T4, Human LILRA2 ECD recombinant protein with His-tag (human, UniProt Q8N149 24-449); assay: ELISA: plate coated with LILRA2 ECD recombinant protein, antibody at 0.5 ug/mL (method of example 3.2.1); mean OD450 printed over the bar [continued) B]
T4 construct: range 24-449; Bought protein; not shown: His-tag

[6] = target: T5, Human LILRA3 ECD recombinant protein with 6×His-tag (human, UniProt Q8N6C8 24-439); assay: ELISA: plate coated with LILRA3 ECD recombinant protein, antibody at 0.5 ug/mL (method of example 3.2.1); mean OD450 printed over the bar [continued) C]
T5 construct: range 1-439; Bought protein; not shown: 6×His-tag

[7] = target: T6, Human LILRA4 ECD recombinant protein with 6×His-tag (human, UniProt P59901 24-446); assay: ELISA: plate coated with LILRA4 ECD recombinant protein, antibody at 0.5 ug/mL (method of example 3.2.1); mean OD450 printed over the bar [continued) D]
T6 construct: range 1-446; Bought protein; not shown: 6×His-tag

[8] = target: T1, Human LILRB2 stably expressed on EL4 …; assay: Competitive FACS: EL4/LILRB2 cells preincubated with 10 ug/mL antibody, then MAG ECD added; inhibition of the ligand's binding to the cells [panel MAG]
Description: as §1

[9] = target: T1, Human LILRB2 stably expressed on EL4 …; assay: Competitive FACS: EL4/LILRB2 cells preincubated with 10 ug/mL antibody, then ANGPTL1 added; inhibition of the ligand's binding to the cells [panel ANGPTL1]
Description: as §1

[10] = target: T3, 6×His-tagged human LILRB2 ECD …; assay: Octet, 1:1 model
[11] = target: T7, Cell membrane human LILRB2 on human primary monocytes from healthy donors (human, UniProt Q8N423 22-597); assay: cell-based or functional assay
[12] = target: T1, Human LILRB2 stably expressed on EL4 …; assay: FACS on EL4/LILRB2 cells
[13] = target: T7, Cell membrane human LILRB2 on human …; assay: FACS on human primary monocytes, Donor #1045
[14] = target: T7, Cell membrane human LILRB2 on human …; assay: FACS on human primary monocytes, Donor #6004
[15] = target: T1, Human LILRB2 stably expressed on EL4 …; assay: competitive FACS on EL4/LILRB2 cells, blockade of HLA-A2 binding
Description: as §1

[16] = target: T3, 6×His-tagged human LILRB2 ECD …; assay: Octet, 1:1 model; column printed as 'kd (1/s)', heads of c4 and c5 are swapped

T3 sequence (Q8N423 22-458 limits assumed): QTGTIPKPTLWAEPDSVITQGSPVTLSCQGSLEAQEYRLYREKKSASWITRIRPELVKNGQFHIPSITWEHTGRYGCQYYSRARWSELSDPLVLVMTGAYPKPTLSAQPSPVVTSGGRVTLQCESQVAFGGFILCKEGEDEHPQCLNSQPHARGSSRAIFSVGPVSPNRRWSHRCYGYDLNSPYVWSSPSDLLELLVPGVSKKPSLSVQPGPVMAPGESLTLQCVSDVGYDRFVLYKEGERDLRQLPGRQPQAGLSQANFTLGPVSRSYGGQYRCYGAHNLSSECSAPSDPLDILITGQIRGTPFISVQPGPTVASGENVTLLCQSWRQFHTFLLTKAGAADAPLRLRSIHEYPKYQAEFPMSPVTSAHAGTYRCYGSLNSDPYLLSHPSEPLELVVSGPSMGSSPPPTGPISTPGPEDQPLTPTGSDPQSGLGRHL
T1 sequence (Q8N423 22-597 limits assumed): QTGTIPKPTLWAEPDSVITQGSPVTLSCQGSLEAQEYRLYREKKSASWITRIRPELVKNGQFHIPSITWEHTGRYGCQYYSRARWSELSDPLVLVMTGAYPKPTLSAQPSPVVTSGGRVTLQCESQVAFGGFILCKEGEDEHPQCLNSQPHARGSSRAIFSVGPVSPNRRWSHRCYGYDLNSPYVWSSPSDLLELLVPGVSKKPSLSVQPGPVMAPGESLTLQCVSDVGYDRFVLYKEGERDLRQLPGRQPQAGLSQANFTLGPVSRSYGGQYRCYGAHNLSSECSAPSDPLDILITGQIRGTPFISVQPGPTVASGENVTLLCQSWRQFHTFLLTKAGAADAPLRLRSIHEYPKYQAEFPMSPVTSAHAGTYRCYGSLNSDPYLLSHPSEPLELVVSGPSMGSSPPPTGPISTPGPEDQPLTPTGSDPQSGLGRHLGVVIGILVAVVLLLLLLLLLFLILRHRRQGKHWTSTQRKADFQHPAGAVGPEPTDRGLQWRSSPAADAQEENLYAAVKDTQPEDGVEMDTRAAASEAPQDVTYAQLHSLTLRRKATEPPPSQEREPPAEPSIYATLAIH
T7 sequence (Q8N423 22-597): as the sequence (Q8N423 22-597 limits assumed) above
T4 sequence (Q8N149 24-449 limits assumed): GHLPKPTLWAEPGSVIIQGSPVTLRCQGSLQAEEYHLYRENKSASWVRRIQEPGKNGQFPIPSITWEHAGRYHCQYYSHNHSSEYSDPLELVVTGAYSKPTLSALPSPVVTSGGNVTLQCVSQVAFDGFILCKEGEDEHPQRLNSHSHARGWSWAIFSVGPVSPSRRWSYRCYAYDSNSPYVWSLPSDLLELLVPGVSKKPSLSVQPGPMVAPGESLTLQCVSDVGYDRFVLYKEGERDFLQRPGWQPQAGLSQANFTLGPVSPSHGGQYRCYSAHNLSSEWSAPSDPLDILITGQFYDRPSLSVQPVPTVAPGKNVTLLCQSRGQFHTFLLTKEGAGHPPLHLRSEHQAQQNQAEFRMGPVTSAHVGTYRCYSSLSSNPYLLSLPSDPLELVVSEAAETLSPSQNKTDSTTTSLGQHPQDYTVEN
T6 sequence (P59901 24-446 limits assumed): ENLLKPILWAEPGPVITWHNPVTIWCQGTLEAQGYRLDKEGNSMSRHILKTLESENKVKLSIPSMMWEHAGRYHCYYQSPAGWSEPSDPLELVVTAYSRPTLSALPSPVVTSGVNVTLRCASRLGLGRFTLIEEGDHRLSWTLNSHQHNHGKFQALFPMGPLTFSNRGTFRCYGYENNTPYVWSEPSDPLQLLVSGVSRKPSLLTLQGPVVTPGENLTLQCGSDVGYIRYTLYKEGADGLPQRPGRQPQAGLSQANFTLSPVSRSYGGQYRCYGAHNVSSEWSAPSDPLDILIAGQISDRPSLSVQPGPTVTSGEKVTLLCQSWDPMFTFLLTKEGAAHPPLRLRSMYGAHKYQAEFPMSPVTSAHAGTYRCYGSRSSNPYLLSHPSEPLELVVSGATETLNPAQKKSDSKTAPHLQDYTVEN
T2 sequence (O75019 17-461 limits assumed): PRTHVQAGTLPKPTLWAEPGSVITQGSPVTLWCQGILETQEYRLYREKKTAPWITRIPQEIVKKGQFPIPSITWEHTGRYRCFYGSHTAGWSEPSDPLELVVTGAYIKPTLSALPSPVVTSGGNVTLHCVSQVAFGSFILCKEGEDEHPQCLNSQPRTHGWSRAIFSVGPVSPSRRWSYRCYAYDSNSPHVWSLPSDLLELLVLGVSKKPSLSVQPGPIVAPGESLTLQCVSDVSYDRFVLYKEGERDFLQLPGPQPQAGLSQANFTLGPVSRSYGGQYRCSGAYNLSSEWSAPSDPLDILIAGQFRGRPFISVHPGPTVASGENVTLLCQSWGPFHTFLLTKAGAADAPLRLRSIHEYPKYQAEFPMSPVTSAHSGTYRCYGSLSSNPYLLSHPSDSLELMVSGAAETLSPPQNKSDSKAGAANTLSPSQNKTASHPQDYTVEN
T5 sequence (Q8N6C8 24-439 limits assumed, form in doubt): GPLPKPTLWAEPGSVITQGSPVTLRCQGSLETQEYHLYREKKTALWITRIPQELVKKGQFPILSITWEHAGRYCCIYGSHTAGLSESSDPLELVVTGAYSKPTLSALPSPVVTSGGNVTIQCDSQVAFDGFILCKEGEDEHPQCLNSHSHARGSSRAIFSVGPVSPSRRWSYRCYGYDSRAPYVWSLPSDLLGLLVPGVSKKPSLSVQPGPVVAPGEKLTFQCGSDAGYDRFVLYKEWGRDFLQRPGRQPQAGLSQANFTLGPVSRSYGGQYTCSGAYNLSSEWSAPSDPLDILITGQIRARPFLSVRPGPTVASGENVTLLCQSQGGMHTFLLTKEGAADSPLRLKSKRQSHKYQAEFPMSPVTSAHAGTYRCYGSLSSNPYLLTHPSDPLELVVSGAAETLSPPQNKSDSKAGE

IC50 [1]: 70 pM
TOP Blocking (%) [1]: 100%
binding result [2]: no binding (tested: 0.5 ug/mL)
relative binding signal of Ab2 in tandem [3]: 32%
OD450 [4]: 0.14
OD450 [5]: 0.08
OD450 [6]: 0.08
OD450 [7]: 0.17
Inhibition (%) [8]: 13%
Inhibition (%) [9]: 70%
B1: J-19 (antibody, V domains shown)
VH: QVTLKESGPGILQPSHTLSLTCSFSGFSLNTYAMGVSWIRQPSGKGLEWLASIWWNGNKYNNPSLKSRLTVSKDTSNNQAFLKVTSVDTADTATYYCAHSRIIRFTDYVMDAWGQGASVTVSS
VL: DIQMTQSPASLSTFLGEPVTIECRASEDIYNDLAWYQQKPGKSPQLLIYNANSLHTGVPSRFSGSGSGTQYSLKINSLQSEDVASYFCQQYYDYPLTFGSGTKLEIK
notes: Human IgG4 monoclonal antibody with S228P in the constant region, made according to WO 2019/126514 A2; also called benchmark antibody J-19

Kd [10]: 2400 pM
Relative cytokine/chemokine level, B7-H1/PD-L1 (M2-T coculture 1:1, Luminex) [11]: 1.8 fold of Medium
Relative cytokine/chemokine level, CCL3/MIP-1 alpha (M2-T coculture 1:1, Luminex) [11]: 1.3 fold of Medium
Relative cytokine/chemokine level, CCL4/MIP-1 beta (M2-T coculture 1:1, Luminex) [11]: 2.4 fold of Medium
Relative cytokine/chemokine level, CCL5/RANTES (M2-T coculture 1:1, Luminex) [11]: 3.8 fold of Medium
Relative cytokine/chemokine level, CCL19/MIP-3 beta (M2-T coculture 1:1, Luminex) [11]: 0.3 fold of Medium
Relative cytokine/chemokine level, CCL20/MIP-3 alpha (M2-T coculture 1:1, Luminex) [11]: 2.2 fold of Medium
Relative cytokine/chemokine level, CXCL2/GRO beta (M2-T coculture 1:1, Luminex) [11]: 0.4 fold of Medium
Relative cytokine/chemokine level, FGF-basic (M2-T coculture 1:1, Luminex) [11]: 1.3 fold of Medium
Relative cytokine/chemokine level, G-CSF (M2-T coculture 1:1, Luminex) [11]: 2.3 fold of Medium
Relative cytokine/chemokine level, GM-CSF (M2-T coculture 1:1, Luminex) [11]: 1.6 fold of Medium
Relative cytokine/chemokine level, Granzyme B (M2-T coculture 1:1, Luminex) [11]: 7.6 fold of Medium
Relative cytokine/chemokine level, IFN-alpha (M2-T coculture 1:1, Luminex) [11]: 2.2 fold of Medium
Relative cytokine/chemokine level, IFN-gamma (M2-T coculture 1:1, Luminex) [11]: 4.1 fold of Medium
Relative cytokine/chemokine level, IL-1beta/IL-1F2 (M2-T coculture 1:1, Luminex) [11]: 1.9 fold of Medium
Relative cytokine/chemokine level, IL-2 (M2-T coculture 1:1, Luminex) [11]: 17.8 fold of Medium
Relative cytokine/chemokine level, IL-3 (M2-T coculture 1:1, Luminex) [11]: 3.6 fold of Medium
Relative cytokine/chemokine level, IL-4 (M2-T coculture 1:1, Luminex) [11]: 1.6 fold of Medium
Relative cytokine/chemokine level, IL-5 (M2-T coculture 1:1, Luminex) [11]: 2.3 fold of Medium
Relative cytokine/chemokine level, IL-6 (M2-T coculture 1:1, Luminex) [11]: 0.2 fold of Medium
Relative cytokine/chemokine level, IL-13 (M2-T coculture 1:1, Luminex) [11]: 1.8 fold of Medium
Relative cytokine/chemokine level, IL-15 (M2-T coculture 1:1, Luminex) [11]: 1.8 fold of Medium
Relative cytokine/chemokine level, PDGF-AA (M2-T coculture 1:1, Luminex) [11]: 4.3 fold of Medium
Relative cytokine/chemokine level, PDGF-AB/BB (M2-T coculture 1:1, Luminex) [11]: 1.5 fold of Medium
Relative cytokine/chemokine level, TGF-alpha (M2-T coculture 1:1, Luminex) [11]: 3.2 fold of Medium
Relative cytokine/chemokine level, TNF-alpha (M2-T coculture 1:1, Luminex) [11]: 4.8 fold of Medium
Relative cytokine/chemokine level, VEGF (M2-T coculture 1:1, Luminex) [11]: 0.3 fold of Medium
EC50 [12]: 730 pM
EC50 [13]: 320 pM
EC50 [14]: 290 pM
IC50 [1]: 110 pM
TOP Blocking (%) [1]: 100%
IC50 [15]: 480 pM
binding result [2]: no binding (tested: 0.5 ug/mL)
relative binding signal of Ab2 in tandem [3]: 108%
kon [16]: 494000 M⁻¹ s⁻¹
OD450 [4]: 0.11
OD450 [5]: 0.08
OD450 [6]: 0.09
OD450 [7]: 0.13
Inhibition (%) [8]: 90%
Inhibition (%) [9]: 71%
B2: 043c (antibody, V domains shown)
VH: QVQLQQSGAELAKPGASVKLSCKASGYTFTSYWMYWVKQRPGQGLEWIGHINPSSGYTKYNQKFKDKATLTADKSSSTAYMQLSSLTYEDSAVYYCARDPNWDNYWGQGTTLTVSS
VL: DIVMTQSHKFMSTSVGDRVSITCKASQDVSIAVAWYQQKPGQSPKLLIYSASYRYTGVPDRFTGSGSGTDFTFTISSVQAEDLAVYYCQQHYSTPYTFGGGTKLEIK
notes: Human IgG4 chimeric antibody with S228P mutation at the Fc region; also called chimeric antibody 043c; parental antibody 043c

EC50 [13]: 840 pM
EC50 [14]: 910 pM
binding result [2]: no binding (tested: 0.5 ug/mL)
relative binding signal of Ab2 in tandem [3]: 3%
OD450 [4]: 0.1
OD450 [5]: 0.07
OD450 [6]: 0.07
OD450 [7]: 0.12
Inhibition (%) [8]: 93%
Inhibition (%) [9]: 70%
B3: 1E1 (antibody, V domains shown)
VH: QVQLQQWGAGLLKPSETLSLTCAVYGGSFSGYYWSWIRQPPGKGLEWIGEINHSGSTNYNPSLKSRVTISVDTSKNQFSLKLSSVTAADTAVYYCARLPTRWVTTRYFDLWGRGTLVTVSS
VL: QSVLTQPPSVSGAPGQRVTISCTGSSSNIGAGYDVHWYQQLPGTAPKLLIYGNSNRPSGVPDRFSVSKSGASASLAITGLQAEDEADYYCQSFDNSLSAYVFGGGTQLTVL
notes: Human IgG4 monoclonal antibody with S228P in the constant region, made according to US 2018/0298096 A1; also called benchmark antibody 1E1
